From the supplement of paper PMC9112550, “Optimization of the antimicrobial peptide Bac7 by deep mutational scanning” (BMC Biology, 2022)

System: Escherichia coli TOP10
Experiment: shrunken log2 fold change of peptide-encoding DNA abundance (4.5 h post-induction vs induction); higher = less antimicrobial activity (less host growth inhibition)
Conditions: time post-induction: 4.5 h; library: site-saturation at positions 5, 18, 19, 20
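Further: peptides expressed intracellularly from a pBAD plasmid library in pooled LB shake-flask culture, induced with 0.3% L-arabinose, DNA abundance read by NGS, three biological replicates, DESeq2 with apeglm shrinkage.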

Sequence | shrunken log2 fold change
RRIRVRPPRLPRPRPRPKSCPRP | -0.113
RRIRVRPPRLPRPRPRPKSQPRP | 0.309
RRIRVRPPRLPRPRPRPKSWPRP | 0.224
RRIRVRPPRLPRPRPRPKVKPRP | 0.0531
RRIRVRPPRLPRPRPRPKVWPRP | 0.409
RRIRVRPPRLPRPRPRPKWAPRP | 0.269
RRIRVRPPRLPRPRPRPKWTPRP | 0.0514
RRIRVRPPRLPRPRPRPKYFPRP | -0.239
RRIRVRPPRLPRPRPRPLAPPRP | 0.169
RRIRVRPPRLPRPRPRPLAQPRP | 0.187
RRIRVRPPRLPRPRPRPLCIPRP | -0.499
RRIRVRPPRLPRPRPRPLCMPRP | -0.123
RRIRVRPPRLPRPRPRPLCVPRP | 1.22
RRIRVRPPRLPRPRPRPLDDPRP | 0.00726
RRIRVRPPRLPRPRPRPLEKPRP | 0.158
RRIRVRPPRLPRPRPRPLENPRP | 0.124
RRIRVRPPRLPRPRPRPLERPRP | -0.0607
RRIRVRPPRLPRPRPRPLFSPRP | -0.261
RRIRVRPPRLPRPRPRPLFTPRP | -0.448
RRIRVRPPRLPRPRPRPLGKPRP | 0.0149
RRIRVRPPRLPRPRPRPLGVPRP | -0.116
RRIRVRPPRLPRPRPRPLKNPRP | -0.0569
RRIRVRPPRLPRPRPRPLMEPRP | -0.21
RRIRVRPPRLPRPRPRPLNRPRP | -0.328
RRIRVRPPRLPRPRPRPLQFPRP | -0.149

Sequence | shrunken log2 fold change
RRIRVRPPRLPRPRPRPLRYPRP | -0.142
RRIRVRPPRLPRPRPRPLVKPRP | -0.0152
RRIRVRPPRLPRPRPRPLWDPRP | 0.00404
RRIRVRPPRLPRPRPRPLYKPRP | -0.584
RRIRVRPPRLPRPRPRPLYYPRP | -0.453
RRIRVRPPRLPRPRPRPMALPRP | -0.169
RRIRVRPPRLPRPRPRPMAPPRP | 0.0351
RRIRVRPPRLPRPRPRPMDMPRP | -0.946
RRIRVRPPRLPRPRPRPMEEPRP | 0.215
RRIRVRPPRLPRPRPRPMFDPRP | -0.338
RRIRVRPPRLPRPRPRPMFYPRP | -0.725
RRIRVRPPRLPRPRPRPMGGPRP | 0.062
RRIRVRPPRLPRPRPRPMHCPRP | -0.00923
RRIRVRPPRLPRPRPRPMHGPRP | 0.00623
RRIRVRPPRLPRPRPRPMHPPRP | 0.0843
RRIRVRPPRLPRPRPRPMLGPRP | -0.0049
RRIRVRPPRLPRPRPRPMNDPRP | -0.187
RRIRVRPPRLPRPRPRPMNLPRP | -0.0749
RRIRVRPPRLPRPRPRPMQIPRP | -0.0185
RRIRVRPPRLPRPRPRPMQYPRP | -0.324
RRIRVRPPRLPRPRPRPNCYPRP | -0.411
RRIRVRPPRLPRPRPRPNDMPRP | -0.337
RRIRVRPPRLPRPRPRPNEAPRP | -0.0128
RRIRVRPPRLPRPRPRPNEMPRP | 0.0222
RRIRVRPPRLPRPRPRPNESPRP | -0.374

Sequence | shrunken log2 fold change
RRIRVRPPRLPRPRPRPNFFPRP | 0.0488
RRIRVRPPRLPRPRPRPNGQPRP | 0.0697
RRIRVRPPRLPRPRPRPNKCPRP | -0.616
RRIRVRPPRLPRPRPRPNKMPRP | -0.411
RRIRVRPPRLPRPRPRPNKRPRP | -0.158
RRIRVRPPRLPRPRPRPNMPPRP | -0.0801
RRIRVRPPRLPRPRPRPNNPPRP | -0.352
RRIRVRPPRLPRPRPRPNNSPRP | -0.309
RRIRVRPPRLPRPRPRPNPFPRP | -0.104
RRIRVRPPRLPRPRPRPNPLPRP | -0.167
RRIRVRPPRLPRPRPRPNQMPRP | -0.092
RRIRVRPPRLPRPRPRPNRIPRP | -0.0663
RRIRVRPPRLPRPRPRPNRPPRP | -0.262
RRIRVRPPRLPRPRPRPNTQPRP | -0.0658
RRIRVRPPRLPRPRPRPNVVPRP | -0.109
RRIRVRPPRLPRPRPRPNWDPRP | -0.0621
RRIRVRPPRLPRPRPRPNWQPRP | 0.108
RRIRVRPPRLPRPRPRPNYVPRP | -0.254
RRIRVRPPRLPRPRPRPPADPRP | 0.565
RRIRVRPPRLPRPRPRPPDFPRP | 0.0119
RRIRVRPPRLPRPRPRPPDVPRP | -0.286
RRIRVRPPRLPRPRPRPPEHPRP | -0.219
RRIRVRPPRLPRPRPRPPENPRP | -0.0386
RRIRVRPPRLPRPRPRPPFDPRP | 0.199
RRIRVRPPRLPRPRPRPPFTPRP | 0.955
